Results from the nanobody polyreactivity screen of Harvey et al. (2022).

Assay: yeast display, Sf9 membrane polyspecificity reagent, FACS + sequencing; frameworks hold sequencing errors
Procedure, shortened: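 Sorting gates, low and high (top ~1%), were placed on anti-HA fluorescence to track expression and on streptavidin fluorescence to track reagent binding. A clone's polyreactivity label is taken from the gate it came out of. The reagent was 10% biotinylated, detergent-solubilized Sf9 membrane, applied for 1 hour at 4 °C to galactose-induced yeast display cells.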
With “QVQLVESGGGLVQAGGSLRLSCAASGNIFLYYAMGWYRQAPGKERELVADIDSSGASTYYADSVKGRFTISRDNAKNTVYLQMNSLKPEDTAVYYGAKDSNRYSYYSPYDSWGQGTQVTVSS” the “polyreactivity (PSR sort gate)” value was “low polyreactivity”. In the case of “QVQLVESGGGLVQAGGSLRLSCAASGITFGYNTMGWYRQAPGKERELVAAISGSGGRTYYADSVKGRFTISRDNAKNTVFLQMNSLKPEDTAVYYCAARWPIWSSLYDYWGQGTQVTVSS”, the “polyreactivity (PSR sort gate)” value is reported as “high polyreactivity”. With “QVQLVESGGGLVQAGGSLRLSCAASGSNFIPNAMGWYRQAPGKERELVAAIRSGRSTYYADSVKGRITISRDNANNTVYLQMNSLQPEATAVYYCAADTYPYYYYLARYYYWGQCTQVTVSS” the “polyreactivity (PSR sort gate)” value was “low polyreactivity”. In the case of “QVQLQESGGGLVQAGGSLRLSCAASGTLSPLPAMGWYRQAPGKEREFVPGIDTGAITNYADSLKGRFTISRDNAKYTVYLQMNSLKPEDTAVYYCAVFPAAYLYYERYDTYWGQGTQVTVSS”, the “polyreactivity (PSR sort gate)” value is reported as “low polyreactivity”. For “QVQLVESGGGLVQAGGSLLLSCAASGSTFPHYTMGWYSQAPGKEREWVAVISRSGRTYYADSVKGRFTISRDNAKNTVYLQMNSLKPEDTAVYYCAVLVGRLVWSYNHWGQGTQGTVSS”, the “polyreactivity (PSR sort gate)” value was “high polyreactivity”. With “QVQLVESGGGLVQAGGSLRLSCAPSGSTFYRYAMGWYRQAPGKERELVAAISSSGGRTYYADSVKGRFTISRDNAKNTDYLQMNSLKPEDTAVYYCAADYTKHYWGQGTQVTVSS” the “polyreactivity (PSR sort gate)” value was “high polyreactivity”. In the case of “QVQLVESGGGLVQAGGSLRLSCAASGSIFDYKAMGWYRQAPGKERELVAAIDSSDTGTYYADSVKGRFTISRDNAKNTVYLQMNSLKPEDTAVYYCAAEYGWWEGSTTYLRYDYWGQGTQVTVSS”, the “polyreactivity (PSR sort gate)” value is reported as “low polyreactivity”. For “QVQLVESGGGLDQARGSLRLSCAASGLTFHRYAMGWYRQANGKERELVAAINYSGGRTYYADSVKGRFTISRDNAKNTVYLQMNSLKPEDTAVYYCNAVRYQKIFDYWGQGTQVTVSS”, the “polyreactivity (PSR sort gate)” value was “high polyreactivity”. In the case of “QVQLVESGGGLVQAGGSLRLSCAASGFTFKGNAMGWYIQAPGKERELVATITQSAGYTYYADSVKGRFTISRDNAKNTVYLQLNSLKPEDTAVYYCNADPITLYYYSWYNYWGQGTQVTVSS”, the “polyreactivity (PSR sort gate)” value is reported as “low polyreactivity”. For “QVQLVESGGGLGQAGGSLRLSCAASGGTFYYYAMGWSRQAPGKERELVAAITESGGSTYYGDSVKGRFTISRDNAKNTVNLQMNSLKPEDTAVYYCAAETYYGDDGYWGQGTQVTVSS”, the “polyreactivity (PSR sort gate)” value was “low polyreactivity”. For “QVQLVESGGGLVQAGGSLRLSCAASGSTFYVYAMGWYRQAPGKARELVAAIRSGGSTNYADSVKGRFTISRDNAKNTVYFQLNSLKPEDTAVYYCNADTWLYRYDYWGQGTQVTVSS”, the “polyreactivity (PSR sort gate)” value was “low polyreactivity”. For “QVQLVESGGGLVQAGGSLRLSCAASGRTFRRYAMGWYRQAPGKERELVAAISKSGGRTYYADSVKGRFTISRDNAKNTVYLQMNSLKPEDTAVYYCAADHIQTAGGDYWGQGTQVTVSS”, the “polyreactivity (PSR sort gate)” value was “high polyreactivity”. With “QVQLVESGGGLVQAGGSLRLSCAASGRTFRWNAMGWYRQAPGKERELVAAISSGGSTYYADSVKGRFTISRDNAKNTVYLQMNSLKPEDTAVYYCAKSSFKYRWSYPVISMDYWGQGTQVTVSS” the “polyreactivity (PSR sort gate)” value was “high polyreactivity”. For “QVQLVESGGGLVQAGGSLRLSCAASGSTFFVNTMGWYRQAPGKERELVAAIRRRGGSTYYADSVKGRFTISRDNAKNTVYLQMNSLIPEDTAVYYCAADSYSRYYYWGQGTQVTVSS”, the “polyreactivity (PSR sort gate)” value was “high polyreactivity”. In the case of “QVQLVESGGGLVQAGGSLRLSCAASGFTFPIYAMGWYRQAPGKERELVAAITTRGGRTYYADSVKGRFTISRDNAKNTVYLQMNSLKPEDTAVYYCTTRGRRTDYDYWGQGTQVTVSS”, the “polyreactivity (PSR sort gate)” value is reported as “high polyreactivity”. With “QVQLVESGGGLVQAGGSLRLSCAASGSTFAVNVMGWYRQAPGKERELVATITYRDGRTYYADSVKGRFTISRDNAKNTVYLQMNSLNPEDTAVYYCAADDEYKQEAEMDSWGQGTQVTVSS” the “polyreactivity (PSR sort gate)” value was “low polyreactivity”. In the case of “QVQLVESGGGLVQAGGSLRLSCAASGSTFTSYAMGWYRQAPRKERELVAAINYSGGSTYYADSVKGRFTISRDNAKNTVYLQMNSLKPEDTAVYYCAADGYIRQYVTYYYWGQGTQVTVSS”, the “polyreactivity (PSR sort gate)” value is reported as “low polyreactivity”. For “QVQLVESGGGLVQAGGSLRLSCAASGSTFFSYAMGWYRQAPGKERELVAAISNTGGTHYADSVKGRFTISRDNAKNTVYLQMNSLKPEDTAVFYCAADGWYYIGPFSVYSSFTSDYWGQGTQLTVSS”, the “polyreactivity (PSR sort gate)” value was “low polyreactivity”. With “QDQLVETGGGLVQAGGCLRLSCAASGRNFFGYAMGWYRQAPGTERELLAAITQSGGRTYYADSVKGRFTISRDNAKNTVYLLMNSQKPEDTAVYYCAATWLGTRNLVHITLYYWGQGTQVTVSS” the “polyreactivity (PSR sort gate)” value was “low polyreactivity”. For “QVQLVESGGGLVKAGGSLRLSCAPSGSSFYYAMGWYRQAPGKERELVAAINSGGSTNYADSVKGRFTISRDNAKNTVYLQMNSLKPEDTAVYYCAADLYGYWWSFDYDYWGQGTQVTVSS”, the “polyreactivity (PSR sort gate)” value was “low polyreactivity”. With “QVQLVESGGGLVQAGGSHRLSCAASGIIFYRNAMGWYRQAPGKEREFVAAISSSGTNTYYADSVKGRFTISRDNAKITVYLQMNSLKPEDTAVYYCNADPDDGYFSDFDYWGQGTQVTVSS” the “polyreactivity (PSR sort gate)” value was “low polyreactivity”. In the case of “QVQLVESVGGLVQAGGSLRLSCAASGFIFYGYAMGWYRQAPGKERELVAAISRSGTSTYYADSVKGRFTISRDYAKNTVYLQMNSVKPDDTAVYYCDADYVGWKWGSRGAIYKHYYWGQGTQVTVSS”, the “polyreactivity (PSR sort gate)” value is reported as “high polyreactivity”. For “QVQLVESGGGLVQAGGSLRLSCAASGSTFSVYAMGWYRQAPGKERELVASISSSVGRTFYADSVKGRFTISRDNSKNTVYLQMNSLKPEDTAVYYCNAGVRYSGFDYWGQGTQVTVSS”, the “polyreactivity (PSR sort gate)” value was “high polyreactivity”. In the case of “QVQLVESGGGLVQAGGSLRLICAASGIIFSSNAMGWSRQAPGKERELVAAISNTGRTNYADSVKGRFTISRDNAKNTVYLQLNSLKPEDTAVYYCAARLSRRYYSYYYWGQGTQVTVSS”, the “polyreactivity (PSR sort gate)” value is reported as “high polyreactivity”. For “QVQLVESGGGLVKAGCSLRLSCAASGRIFIVNAMGWYRQAPGKERELVAAISGSGGRTYYADSVKGRFTNSRDNAKNTVYLQMNSLKPEVTAVYYCAAVLRTQPRRYDYWGQGTQVTVSS”, the “polyreactivity (PSR sort gate)” value was “high polyreactivity”. For “QVQLVESGGGLVQAGGSLRLSCAASGLIFRGYAMGWYRQAPGKERELVAAISRSGGRTYYADSVKGRYTISRDNAKNTVYLQMNSLKPVDTAVYYCAAQWLYLEYDYWGQGTQVTVSS”, the “polyreactivity (PSR sort gate)” value was “high polyreactivity”. For “QVQLVESGGGLVQAGGSLRLSCAASGSIFGEYAMGWYRQAPGKERELVATISWSAGSTYYADSVKGRFTISRDYAKNTVYLQMNSLKPEDTAVYYCAAAYDGYYLSTFDSWGQGTQVTVSS”, the “polyreactivity (PSR sort gate)” value was “low polyreactivity”. In the case of “QFQLVESGGGLVQAGGTLRLSCAPSGFTFTLNPLGWYRQAPGKERQLVATIDWSGTSTYYADSVKGRFRISRDKAKNTFYLQMNCMKPVDTAVYYCARVYQGYPGFYDGEYWGQGNQVTVSS”, the “polyreactivity (PSR sort gate)” value is reported as “low polyreactivity”. For “QVQLVESGGGLVQAGGSLRLSCAASGITFGDYAMGWYRQAPGKERELVAAISKRGGSTYYAESVKGRFTISRDNAKNTVYLQMNSRNPEDTAVYYCAADYYSKAYYYWGQGTQVTVSS”, the “polyreactivity (PSR sort gate)” value was “high polyreactivity”. For “QVQLVESGGGLVQAGGSLRLSCAASGSILLIYAMGWYRQAPGKERELVAGITRGGSTNYADSVKGRFTISRDNAKNTVYLQMNSLKPEDTAVYYCASDGGPARYLVSDRDYWGQGTQVTVSS”, the “polyreactivity (PSR sort gate)” value was “low polyreactivity”. With “QVQLVESGGGLVQAGGSLRLSCAASGLTFYQNAMGWYRPAPGTERELVAGISSVGSTKYADSVKGRFTISRDNAKNTVYLQMNSLKPEDTAVYYCAPRFYAFRKGYYYWGQGTQVTVSS” the “polyreactivity (PSR sort gate)” value was “high polyreactivity”. For “QVQLVESGGGLVQAGGSLRLSCAASGFTFRVNAMGWYRQAPGKERELVAASSSGGRTYYADSVKGRFTISRDNAKNTVYLQMNSLKPEDTAVYYCNAGRVRHGNDYWGQGTQVTVSS”, the “polyreactivity (PSR sort gate)” value was “high polyreactivity”. For “QVQLVESGGGLVQAGGSLRLSCADSGSTFWLYAMGWYRQAPGKERELVASISSRGRSTYYADSVKGRFTISRDNAKNTVYLQMNSLKPEDTAVYYCAAKDIRYDDDYWGQGTQVTVSS”, the “polyreactivity (PSR sort gate)” value was “low polyreactivity”. For “QVQLVESGGGLVQAGGSLRLSCAASGSTFSQYAMGWYRQAPGKETELVAVITRSGGSTYYADSVKGRFTISRDNAKNTVYLQMNSLKPEDTAVYYCAARSGRYKGDYWGQGTQVTVSS”, the “polyreactivity (PSR sort gate)” value was “low polyreactivity”. In the case of “QGQLVESGGGLVQAGGILRLSCAASGIIFCRYAMGWYRQAPGKERELVATITWRGGSTYYADSVKARFTNSRDNAKNTVYLQMNSLKPEDTAVYSSAADTRPSRSFRARDYWGQGTQVTVSS”, the “polyreactivity (PSR sort gate)” value is reported as “low polyreactivity”. With “QVQLVESGGGLLQAGGSLRLSCAASGGIKSENAMGWYRQAPRKERELVAVITDGGSTNYADSVKGRFTISRDNAKNTVYLQMNSLKPEDTAVYYCAKDTYLELWLDPLYDYWGQGTQVTVSS” the “polyreactivity (PSR sort gate)” value was “low polyreactivity”. In the case of “QVQLVESGGGLVQAGGSLRLSCAATGLILGRNAMGWYRQAPGKERELVAAITGSGSTNYADSVKGRFTISRDNAKNTVYLQMNSLKPEDTAVYYCAADVRLDPTGLDYLDYDYWGQGTQVTVSS”, the “polyreactivity (PSR sort gate)” value is reported as “low polyreactivity”. With “QHQLVESGGGLVQAGASLRLSCAASGRTFFKNAKGWYRQAPGKERELVAGISRTGSTNYADSVKGRFTISSDNAKNTVYLEMNSLKPEDTAVYYCAAGVLGLPLRHRYDYWGQGTQVTVSS” the “polyreactivity (PSR sort gate)” value was “low polyreactivity”. In the case of “QVQLVESGGGLVQAGGSLRLSCAASGYTIWHYAMGWYRQAPGKEREFVATISSGGSTYYADSVKGRFTISRDNAKNTVYLQMNSLKPEDTAVYYCAVDIWGGEGYDSWGQGTQVTVSS”, the “polyreactivity (PSR sort gate)” value is reported as “low polyreactivity”. For “QVQLVESGGGLVQAGGSLRLSCAASGSIFIYYAMGWYRQAPGKERELVAAITWRSGSTYYADSVKGRFTISRDNAKNTVYFQRNSLKPEDNAVNYCAAYAWTATDSARPYGYDYWGQGTQVTVSS”, the “polyreactivity (PSR sort gate)” value was “low polyreactivity”. In the case of “QVQLVESGGGLVQAGGSLRLSCAASGSTFGPYVMGWYRQAPGKERELVATITSDDSTNYADSVKGRFTISRDNAKNTVYLQMNSLKPEDTAVYYCAVERDYWTKASYYWGQGTQVTVSS”, the “polyreactivity (PSR sort gate)” value is reported as “low polyreactivity”.
